These results are taken from patent US6649364.

For data set [1], the target named is α-actin purified from rabbit skeletal muscle, globular (G-actin) form (UniProt P68135).
Data set [2] concerns the target DNase I (Sigma, St. Louis, Mo.). In words: cell-based or functional assay.

As to DNase I (Sigma, St. Louis, Mo.), in data set [1], the “DNase I digestion of plasmid DNA (agarose gel)” value is “preincubation of DNase I with intact actin (1.5 µg) for 5 minutes markedly reduced its ability to digest the plasmid”. On to actin cleaved for 90 minutes by ICE, for which, in data set [2], the DNase I digestion of plasmid DNA (agarose gel): level of inhibition against diluted intact actin is 5 fold and the DNase I digestion of plasmid DNA (agarose gel): reduction in DNase I inhibition stood at 80%.
